Assay results reported in the supplement of paper PMC10065799, “High-throughput profiling of sequence recognition by tyrosine kinases and SH2 domains using bacterial peptide display” (eLife, 2023).

Key:
SHP2-C SH2 = experiment: SH2 binding enrichment of the phosphorylated peptide, bacterial display (enrichment ratio); higher = better substrate or ligand; peptides without Tyr show the background
c-Src SH2 = experiment: as above
Grb2 SH2 = Grb2 SH2 (UniProt P62993); experiment: as above
c-Src = experiment: phosphorylation enrichment, bacterial display (enrichment ratio); higher = better substrate or ligand; peptides without Tyr show the background
FGFR3 = FGFR3 (UniProt P22607); experiment: as above
EPHB1 = EPHB1 (UniProt P54762); experiment: as above
Sequence of EPHB1 (P54762 whole entry, looked up): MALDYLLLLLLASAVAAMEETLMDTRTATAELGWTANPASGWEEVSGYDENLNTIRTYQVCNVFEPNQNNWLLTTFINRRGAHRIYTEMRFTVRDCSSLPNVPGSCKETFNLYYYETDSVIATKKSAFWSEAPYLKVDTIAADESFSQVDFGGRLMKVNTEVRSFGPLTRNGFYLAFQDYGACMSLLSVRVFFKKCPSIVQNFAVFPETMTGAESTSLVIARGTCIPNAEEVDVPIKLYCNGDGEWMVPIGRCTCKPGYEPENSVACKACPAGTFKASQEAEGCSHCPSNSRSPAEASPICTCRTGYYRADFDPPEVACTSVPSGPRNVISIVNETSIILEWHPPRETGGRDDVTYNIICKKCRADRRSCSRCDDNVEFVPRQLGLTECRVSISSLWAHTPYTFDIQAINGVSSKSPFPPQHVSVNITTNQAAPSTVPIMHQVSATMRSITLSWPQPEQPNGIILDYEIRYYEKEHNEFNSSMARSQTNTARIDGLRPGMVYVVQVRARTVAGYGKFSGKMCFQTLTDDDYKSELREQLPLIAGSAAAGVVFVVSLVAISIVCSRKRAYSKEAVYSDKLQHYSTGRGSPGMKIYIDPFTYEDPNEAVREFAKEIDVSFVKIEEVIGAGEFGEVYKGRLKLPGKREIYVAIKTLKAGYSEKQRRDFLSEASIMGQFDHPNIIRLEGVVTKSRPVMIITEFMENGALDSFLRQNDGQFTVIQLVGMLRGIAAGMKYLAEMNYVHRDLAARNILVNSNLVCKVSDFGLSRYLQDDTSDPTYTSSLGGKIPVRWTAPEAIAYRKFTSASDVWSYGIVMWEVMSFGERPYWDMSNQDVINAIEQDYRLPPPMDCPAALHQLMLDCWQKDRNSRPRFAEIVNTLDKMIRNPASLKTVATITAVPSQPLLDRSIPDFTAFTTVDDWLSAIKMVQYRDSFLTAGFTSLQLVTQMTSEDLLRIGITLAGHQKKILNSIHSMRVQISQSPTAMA

Jak2 = Jak2 (UniProt O60674); experiment: as above
Sequence of Jak2 (O60674 whole entry, looked up): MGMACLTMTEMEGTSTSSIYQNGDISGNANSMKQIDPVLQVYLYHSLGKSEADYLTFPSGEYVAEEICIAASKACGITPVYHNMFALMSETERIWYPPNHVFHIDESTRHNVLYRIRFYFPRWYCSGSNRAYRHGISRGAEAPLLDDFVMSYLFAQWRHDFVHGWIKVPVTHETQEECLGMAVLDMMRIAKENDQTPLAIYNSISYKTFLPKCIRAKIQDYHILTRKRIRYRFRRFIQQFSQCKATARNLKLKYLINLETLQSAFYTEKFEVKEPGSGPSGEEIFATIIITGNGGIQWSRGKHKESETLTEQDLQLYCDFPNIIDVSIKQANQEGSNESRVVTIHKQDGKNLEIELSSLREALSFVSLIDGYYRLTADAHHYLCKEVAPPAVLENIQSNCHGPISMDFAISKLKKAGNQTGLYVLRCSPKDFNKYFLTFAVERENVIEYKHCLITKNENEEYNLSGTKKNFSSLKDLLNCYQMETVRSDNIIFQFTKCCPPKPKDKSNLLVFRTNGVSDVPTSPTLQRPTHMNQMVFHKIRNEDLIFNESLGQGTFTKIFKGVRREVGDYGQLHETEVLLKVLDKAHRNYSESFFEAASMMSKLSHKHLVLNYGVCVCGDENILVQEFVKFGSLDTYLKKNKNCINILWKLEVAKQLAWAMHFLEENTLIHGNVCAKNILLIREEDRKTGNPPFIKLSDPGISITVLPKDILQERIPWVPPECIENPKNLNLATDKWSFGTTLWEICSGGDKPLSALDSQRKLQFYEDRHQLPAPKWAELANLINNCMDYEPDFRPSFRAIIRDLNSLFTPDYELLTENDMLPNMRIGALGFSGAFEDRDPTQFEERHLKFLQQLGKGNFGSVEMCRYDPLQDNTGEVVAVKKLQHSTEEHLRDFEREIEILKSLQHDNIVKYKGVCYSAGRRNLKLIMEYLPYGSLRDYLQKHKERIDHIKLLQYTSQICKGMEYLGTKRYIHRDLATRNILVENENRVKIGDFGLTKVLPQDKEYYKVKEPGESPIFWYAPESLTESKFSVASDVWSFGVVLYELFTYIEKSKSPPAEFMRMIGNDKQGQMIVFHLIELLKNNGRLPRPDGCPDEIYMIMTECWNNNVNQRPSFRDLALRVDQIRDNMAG

Fer (mouse) = experiment: as above
Fes = Fes (UniProt P07332); experiment: as above
AncSZ = experiment: as above
c-Abl (mouse) = experiment: as above
MERTK = MERTK (UniProt Q12866); experiment: as above
FGFR1 = FGFR1 (UniProt P11362); experiment: as above
Sequence of FGFR1 (P11362 whole entry, looked up): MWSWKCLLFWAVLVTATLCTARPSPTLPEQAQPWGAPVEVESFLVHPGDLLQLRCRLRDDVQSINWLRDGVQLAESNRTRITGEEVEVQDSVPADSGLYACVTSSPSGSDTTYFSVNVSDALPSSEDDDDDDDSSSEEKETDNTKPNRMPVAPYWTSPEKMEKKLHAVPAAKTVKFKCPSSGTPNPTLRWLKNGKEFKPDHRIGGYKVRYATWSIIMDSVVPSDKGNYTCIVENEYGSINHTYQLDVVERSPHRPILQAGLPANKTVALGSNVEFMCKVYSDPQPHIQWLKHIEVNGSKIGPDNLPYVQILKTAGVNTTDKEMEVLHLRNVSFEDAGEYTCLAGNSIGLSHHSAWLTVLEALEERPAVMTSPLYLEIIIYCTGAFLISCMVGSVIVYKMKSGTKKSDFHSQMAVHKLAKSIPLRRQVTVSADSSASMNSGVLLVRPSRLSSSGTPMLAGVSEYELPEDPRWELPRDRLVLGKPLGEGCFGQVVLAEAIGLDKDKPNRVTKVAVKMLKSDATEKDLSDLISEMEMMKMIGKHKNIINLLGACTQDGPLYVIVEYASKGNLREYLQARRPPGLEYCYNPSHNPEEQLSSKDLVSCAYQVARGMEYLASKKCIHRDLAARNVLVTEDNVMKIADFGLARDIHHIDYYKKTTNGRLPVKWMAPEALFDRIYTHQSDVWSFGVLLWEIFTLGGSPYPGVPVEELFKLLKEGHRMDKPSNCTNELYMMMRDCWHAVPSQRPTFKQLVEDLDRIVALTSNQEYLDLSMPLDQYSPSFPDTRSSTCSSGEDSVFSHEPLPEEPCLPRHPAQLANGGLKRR

EPHB2 = EPHB2 (UniProt P29323); experiment: as above
Sequence of EPHB2 (P29323 whole entry, looked up): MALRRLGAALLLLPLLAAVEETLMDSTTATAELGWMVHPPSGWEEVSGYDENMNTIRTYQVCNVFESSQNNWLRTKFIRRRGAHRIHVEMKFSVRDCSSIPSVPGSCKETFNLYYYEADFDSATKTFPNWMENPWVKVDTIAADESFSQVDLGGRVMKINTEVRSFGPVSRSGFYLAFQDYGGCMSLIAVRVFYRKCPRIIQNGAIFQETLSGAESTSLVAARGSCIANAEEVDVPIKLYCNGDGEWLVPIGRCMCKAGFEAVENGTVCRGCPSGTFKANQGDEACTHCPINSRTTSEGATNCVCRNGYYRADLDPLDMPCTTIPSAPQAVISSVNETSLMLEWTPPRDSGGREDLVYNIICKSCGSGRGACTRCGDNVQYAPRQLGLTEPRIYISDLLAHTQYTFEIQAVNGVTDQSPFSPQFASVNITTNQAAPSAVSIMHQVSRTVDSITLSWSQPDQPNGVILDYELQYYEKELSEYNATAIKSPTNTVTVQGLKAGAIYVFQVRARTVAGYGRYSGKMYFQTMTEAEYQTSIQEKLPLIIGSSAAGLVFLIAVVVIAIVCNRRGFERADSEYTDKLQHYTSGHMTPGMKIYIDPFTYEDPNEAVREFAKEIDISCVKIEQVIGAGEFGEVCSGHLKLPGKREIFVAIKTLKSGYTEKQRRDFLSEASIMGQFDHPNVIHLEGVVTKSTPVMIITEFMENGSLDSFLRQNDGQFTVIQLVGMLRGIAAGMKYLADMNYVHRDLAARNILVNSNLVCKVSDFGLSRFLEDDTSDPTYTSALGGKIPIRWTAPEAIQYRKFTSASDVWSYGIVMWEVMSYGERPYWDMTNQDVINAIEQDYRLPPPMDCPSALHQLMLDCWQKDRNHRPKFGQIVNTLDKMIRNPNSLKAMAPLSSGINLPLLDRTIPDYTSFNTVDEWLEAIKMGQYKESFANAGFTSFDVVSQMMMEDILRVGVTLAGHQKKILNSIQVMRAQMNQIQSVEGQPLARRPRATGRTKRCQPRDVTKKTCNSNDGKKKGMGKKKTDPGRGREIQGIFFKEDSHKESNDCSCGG

Fyn = Fyn (UniProt P06241); experiment: as above
Sequence of Fyn (P06241 whole entry, looked up): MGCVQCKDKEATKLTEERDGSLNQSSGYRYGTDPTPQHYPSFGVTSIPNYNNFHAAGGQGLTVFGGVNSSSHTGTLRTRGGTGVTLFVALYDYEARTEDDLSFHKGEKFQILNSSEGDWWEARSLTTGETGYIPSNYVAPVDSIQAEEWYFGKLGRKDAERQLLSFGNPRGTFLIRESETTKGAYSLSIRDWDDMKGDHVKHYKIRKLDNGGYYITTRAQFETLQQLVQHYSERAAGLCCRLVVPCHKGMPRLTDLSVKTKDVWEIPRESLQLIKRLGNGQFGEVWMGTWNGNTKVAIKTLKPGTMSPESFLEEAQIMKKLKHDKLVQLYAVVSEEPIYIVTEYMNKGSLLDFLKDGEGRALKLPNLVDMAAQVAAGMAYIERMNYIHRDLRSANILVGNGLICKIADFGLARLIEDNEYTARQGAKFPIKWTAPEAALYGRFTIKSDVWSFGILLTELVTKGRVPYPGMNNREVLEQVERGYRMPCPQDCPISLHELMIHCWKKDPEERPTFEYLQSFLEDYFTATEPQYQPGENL

Hck = Hck (UniProt P08631); experiment: as above
Sequence of Hck (P08631 whole entry, looked up, the tested form may be a part): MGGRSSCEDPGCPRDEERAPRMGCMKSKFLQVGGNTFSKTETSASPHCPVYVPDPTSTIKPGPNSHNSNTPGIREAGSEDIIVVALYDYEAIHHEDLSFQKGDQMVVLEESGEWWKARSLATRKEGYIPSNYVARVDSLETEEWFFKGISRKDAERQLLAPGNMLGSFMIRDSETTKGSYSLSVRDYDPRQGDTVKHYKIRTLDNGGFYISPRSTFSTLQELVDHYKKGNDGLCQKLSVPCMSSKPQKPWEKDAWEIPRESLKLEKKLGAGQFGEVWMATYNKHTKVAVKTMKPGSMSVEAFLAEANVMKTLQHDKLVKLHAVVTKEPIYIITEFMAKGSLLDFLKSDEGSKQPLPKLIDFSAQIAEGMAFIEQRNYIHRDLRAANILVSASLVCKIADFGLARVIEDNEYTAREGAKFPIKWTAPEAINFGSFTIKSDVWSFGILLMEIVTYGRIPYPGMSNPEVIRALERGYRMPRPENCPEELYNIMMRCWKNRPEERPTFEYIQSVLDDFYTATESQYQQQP
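Throughout, for SH2 binding enrichment of the phosphorylated peptide, bacterial display: peptide library displayed on the E. coli surface as eCPX fusions, selected cells deep-sequenced, score is each peptide's frequency after selection divided by its frequency in the input.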
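Throughout, for phosphorylation enrichment, bacterial display: 11-residue human phosphosite peptides and single-mutation variants displayed on the E. coli surface, counted by deep sequencing, each peptide's frequency after selection divided by its frequency in the unselected input library; frequency after pTyr selection over input frequency; kinase dosed for 20-30% of maximal phosphorylation in three min.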

| Sequence | SH2 binding enrichment (SHP2-C SH2) | SH2 binding enrichment (c-Src SH2) | SH2 binding enrichment (Grb2 SH2) | phosphorylation enrichment (c-Src) | phosphorylation enrichment (FGFR3) | phosphorylation enrichment (EPHB1) | phosphorylation enrichment (Jak2) | phosphorylation enrichment (Fer (mouse)) | phosphorylation enrichment (Fes) | phosphorylation enrichment (AncSZ) | phosphorylation enrichment (c-Abl (mouse)) | phosphorylation enrichment (MERTK) | phosphorylation enrichment (FGFR1) | phosphorylation enrichment (EPHB2) | phosphorylation enrichment (Fyn) | phosphorylation enrichment (Hck) |
| --- | --- | --- | --- | --- | --- | --- | --- | --- | --- | --- | --- | --- | --- | --- | --- | --- |
| KSRQIYDAYIM [GRK3_Y109_R104K] | 0.834 | 0.683 | 0.955 | 8.25 | 0.546 | 2.98 | 0.581 | 12.4 | 0.735 | 0.797 | 5.89 | 6.9 | 0.505 | 7 | 11.1 | 8.38 |
| FRIGPYQPNVP [MATR3_Y784_YF] | 0.754 | 0.634 | 0.844 | 0.506 | 0.736 | 0.477 | 0.78 | 0.446 | 0.966 | 0.773 | 0.631 | 0.532 | 0.538 | 0.514 | 0.45 | 0.484 |
| RLVTRYIFNRE [HLA-DQB1_Y62_Y58L_YF] | 0.728 | 0.5 | 0.851 | 0.462 | 0.695 | 0.477 | 0.556 | 0.54 | 0.815 | 0.639 | 0.51 | 0.652 | 0.579 | 0.415 | 0.553 | 0.445 |
| LVPPRYVRSEI [PKP2_Y194_A195V] | 0.632 | 0.506 | 0.788 | 0.555 | 0.605 | 0.538 | 0.685 | 0.522 | 0.94 | 0.612 | 0.58 | 0.588 | 0.469 | 0.645 | 0.431 | 0.321 |
| VAMELYVFGGV [GAN_Y471] | 0.685 | 0.395 | 0.808 | 1.13 | 0.781 | 0.799 | 1.37 | 0.574 | 1.64 | 1.28 | 1.05 | 0.928 | 0.513 | 0.681 | 0.533 | 0.535 |
| NGRTGYVLQPE [PLCG2_Y1036] | 0.644 | 0.496 | 0.793 | 0.416 | 0.431 | 0.435 | 0.566 | 0.466 | 0.757 | 0.588 | 0.494 | 0.399 | 0.383 | 0.384 | 0.448 | 0.474 |
| SMEGLYSSAQD [CLIC5_Y111_T114A] | 0.595 | 0.733 | 0.582 | 3.2 | 0.908 | 1.62 | 1.3 | 4.7 | 1.55 | 1.51 | 1.05 | 1.52 | 0.522 | 1.8 | 2.67 | 3.19 |

More lines, main results first:

| SH2 binding enrichment (SHP2-C SH2) | SH2 binding enrichment (c-Src SH2) | SH2 binding enrichment (Grb2 SH2) | Sequence | phosphorylation enrichment (c-Src) | phosphorylation enrichment (FGFR3) | phosphorylation enrichment (EPHB1) | phosphorylation enrichment (Jak2) | phosphorylation enrichment (Fer (mouse)) | phosphorylation enrichment (Fes) | phosphorylation enrichment (AncSZ) | phosphorylation enrichment (c-Abl (mouse)) | phosphorylation enrichment (MERTK) | phosphorylation enrichment (FGFR1) | phosphorylation enrichment (EPHB2) | phosphorylation enrichment (Fyn) | phosphorylation enrichment (Hck) |
| --- | --- | --- | --- | --- | --- | --- | --- | --- | --- | --- | --- | --- | --- | --- | --- | --- |
| 0.577 | 0.437 | 0.701 | SQAPGYSFTAA [CYCS_Y47_G42S_YF] | 0.414 | 0.53 | 0.433 | 0.673 | 0.546 | 0.701 | 0.673 | 0.764 | 0.49 | 0.417 | 0.465 | 0.443 | 0.362 |
| 13.7 | 1.71 | 0.796 | NMHSTYAKLAA [SEC22B_Y193] | 0.375 | 0.349 | 0.437 | 0.362 | 0.34 | 0.401 | 0.382 | 0.47 | 0.38 | 0.385 | 0.451 | 0.415 | 0.948 |
| 0.812 | 0.833 | 1.2 | PQQLWYTHEKK [UBTF_Y207] | 0.473 | 0.481 | 0.58 | 0.802 | 0.339 | 0.792 | 0.652 | 0.499 | 0.361 | 0.516 | 0.327 | 0.409 | 0.496 |
| 0.916 | 0.663 | 1.03 | DISEPYEVFRI [IRF8_Y107_K108E_YF] | 4.48 | 0.725 | 0.665 | 1.09 | 12.3 | 1.15 | 2.21 | 1.09 | 0.572 | 0.661 | 0.559 | 1.91 | 1.81 |
| 0.72 | 0.403 | 0.931 | VHFARYLAMNK [HARS1_Y138_P134H] | 0.553 | 0.771 | 0.504 | 0.661 | 0.44 | 0.902 | 0.864 | 0.565 | 0.509 | 0.511 | 0.555 | 0.557 | 0.506 |
| 0.574 | 0.445 | 0.927 | DTKAFYPEEIS [HSPA1A_Y115_E110D] | 0.523 | 0.88 | 0.456 | 0.933 | 0.479 | 1.1 | 1.05 | 0.752 | 0.432 | 0.482 | 0.579 | 0.441 | 0.393 |
| 0.771 | 0.608 | 0.846 | SQINLYQDVML [ZNF806_Y33_A28S] | 0.934 | 1.06 | 13.2 | 0.847 | 13.9 | 2.48 | 1.02 | 0.752 | 1.81 | 1.01 | 5.9 | 0.965 | 1.6 |
| 0.635 | 0.465 | 0.778 | VKPENYRRLDV [VHL_Y175_I180V] | 0.372 | 0.506 | 0.561 | 0.463 | 0.334 | 0.593 | 0.532 | 0.814 | 0.465 | 0.429 | 0.386 | 0.461 | 0.387 |
| 2.28 | 1.67 | 1.74 | LVMFIYDIFGM [SCN1A_Y1684_A1685D] | 6.25 | 1.9 | 2.11 | 1.72 | 3.13 | 3.08 | 5.48 | 1.55 | 5.95 | 1.66 | 2.92 | 8.72 | 5.56 |
